Assays:
FcγRIIa = biological target: T1, FcγRIIa (Homo sapiens, UniProt P12318, H167R); assay: Surface plasmon resonance: binding to immobilised Fc receptor; settings: SPR, steady state
T1 construct: soluble ectodomains of FcR from R&D Systems; purchased R&D Systems 1330-CD-050/CF
T1 sequence (P12318 34-217 H167R limits assumed): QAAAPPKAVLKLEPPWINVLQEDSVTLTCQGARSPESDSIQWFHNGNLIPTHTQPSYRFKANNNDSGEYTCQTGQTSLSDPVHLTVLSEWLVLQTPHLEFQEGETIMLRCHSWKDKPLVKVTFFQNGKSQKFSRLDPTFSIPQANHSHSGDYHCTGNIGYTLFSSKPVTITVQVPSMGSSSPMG
From the text: A BIAcore T200 SPR Biosensors (GE Healthcare) was used to assay the interaction of soluble ectodomains of FcR from R&D Systems with hDectin1-Fc and IgG1. Amine coupling via N-hydroxysuccinimide ester was formed on a CM5 sensor chip surface according to a procedure recommended by the manufacturer. Ectodomains were immobilized at acidic pH, resulting in the following densities: FcγRI (#1257-FC-050): 1919 RU, FcγRIIa (#1330-CD-050/CF):1766 RU, FcγRIIb/c (#1875-CD-050): 1972 RU, FcγRIIIa (#4325-FC-050): 2275 RU, FcγRIIIb (#1597-FC-050/CF): 2393 RU, FcRn (#8639-FC-050): 2836. A range of hDectin1-Fc/IgG1 concentrations was injected into flow cells at a flow rate of […], with a contact and dissociation time of 300 and 900 seconds, respectively. After each assay cycle, the sensor chip surface was regenerated using 10 mM NaOH. Binding response was recorded as resonance units (RU; 1 RU=1 pg/mm^2) continuously, with background binding automatically subtracted. Due to the polyclonal nature of the hDectin1-Fc/IgG1 recombinant proteins used, kinetic constants (kon, koff, t1/2) were not determined, and the KD was calculated by analyzing the concentration-dependence of the steady-state signal reached at the end of the injection using BIA evaluation version 3 software (GE Healthcare) and Scrubber version 2 software (BioLogic Software, Campbell, Australia). The steady-state response was plotted against the concentration of hDectin1-Fc/IgG1 and fitted using Origin software.
Antibody mediated immune activation depends on the strength of binding and affinity of the Fc to the various Fcγ receptors. Binding to the neonatal receptor FcRn is also important for the half-life in serum and the transcytosis across endothelial cells into various tissues. Surface plasmon resonance was used to evaluate the binding of the Immunoglobulin G's Fc of hDectin1-Fc to the various Fc receptors (FcγRI, FcγRIIa, FcγRIIb, FcγRIIIa, FcγRIIIb and FcRn) present on immune cells by flowing free hDectin1-Fc of various concentrations over immobilised Fc receptors (FIG. 11A-F). […] High affinity FcγRI(CD64) is expressed on macrophages, monocytes and neutrophils and low affinity FcγRIIIa (CD16a) is expressed on natural killer cells, monocytes, macrophages and neutrophils. Both CD64 and CD16a activating receptors have Immunoreceptor Tyrosine based Activation Motif (ITAM) signalling domain. FcγRI strongly binds IgG opsonized targets to trigger phagocytosis and a proinflammatory response of TNFα, IFNγ and production of oxidative species. FcγRIIIa likewise activate degranulation, phagocytosis, and oxidative burst.

SC5314 Candida albicans = assay: In vitro combination therapy checkerboard dilution assay (Amphotericin B & hDectin1-Fc) with human primary macrophages; type: cell-based; settings: between 0 μg/ml and 100 µg/ml hDectin1-Fc, 24 hours
Procedure: Human peripheral blood CD14+ monocytes were cultured at 1×10^6 cells/mL in 5 mL of ImmunoCult™-SF Macrophage Differentiation Medium with Human Recombinant M-CSF at 50 ng/ml in a T-25 flask at 37° C. in a 5% CO2 incubator. On Day 4, 2.5 mL of fresh ImmunoCult™-SF Macrophage Differentiation Medium was added to the flask. On Day 6, M1 activation was initiated with the addition of 50 ng/mL IFN-γ. On Day 8, the macrophages were treated with ACCUTASE and scrapped from the flask. The cells were centrifuged and resuspended in RPMI medium with 10% FBS and seeded into 96 well plates at 10^5 cells/well. The co-culture assay involves the addition of 10^5 cells/well of SC5314 Candida albicans cells to wells containing 10^5 cells/well of human primary macrophages cells with final concentration of hDectin1-Fc at 0, 1, 10 or 100 g/ml and varying concentration of Amphotericin B in a checkerboard dilution assay format in a 96 well plate. The assay was incubated for 24 hr at 37° C. in a 5% CO2 atmosphere incubator and the MIC and MFC determined visual using a Nikon Eclipse Ti-E inverted microscope.
10′ Candida albicans cells and 10′ human primary macropahges were seeded per well in a checkerboard dilution assay of Amphotericin B with the respective concentration of hDectin1-Fc (0, 10, 100 μg/ml) and incubated for 24 hours at 37° C.

hDectin1-Fc: soluble dimeric fusion protein: human Dectin-1 receptor polypeptide (aa 73-247) fused to human IgG1 Fc via hinge; SEQ ID NO: 5
binding to FcγRIIa (Binding Constant KD screen) (FcγRIIa): bind to FcγRI, FcγRIIIa and FcRn only | reduction in MFC of Amphotericin B (SC5314 Candida albicans): ~45%
